In paper PMC12562343, “Modular Virus-like Particles for Antigen Presentation: Comparing Genetic Fusion and Click-Chemistry for Purification” (International Journal of Molecular Sciences, 2025):

Columns and labels:
[1] = biological target: HBc-pAzF (HBc ending at Val149 with p-azidophenylalanine in place of Ala80) (Hepatitis B virus genotype D, serotype ayw) (UniProt P03146); assay: SEC; analytical HPLC-SEC of urea-dissociated samples: purified HBc VLPs after incubation with 4 M urea, and AEX eluates in 2 M urea; capsid to dimers
[2] = biological target: the molecule itself; assay: as above

Row | Molecule | stoichiometry N [1] | stoichiometry N [2]
1 | HBc-pAzF (HBc ending at Val149 with p-azidophenylalanine in place of Ala80) (from UniProt P03146 1-149) (domain or fragment) | 2 | 
2 | truncated Hepatitis B core antigen (HBc) ending at Val149 (domain or fragment, Hepatitis B core antigen (capsid protein), HBV genotype D, serotype ayw, truncated variant ending at Val149; Forms dimers that assemble into VLPs; no tag is mentioned; also called HBc149; unmodified HBc; source: E. coli BL21(DE3), purified (AMS precipitation, AEX native or under dissociating conditions, HIC)) MDIDPYKEFGATVELLSFLPSDFFPSVRDLLDTASALYREALESPEHCSPHHTALRQAILCWGELMTLATWVGVNLEDPASRDLVVSYVNTNMGLKFRQLLWFHISCLTFGRETVIEYLVSFGVWIRTPPAYRPPNAPILSTLPETTVV |  | 2
